Results on 2 molecules are retold here after US20250109212A1 (BIOSION, published 2025).

Experiment [1] addresses T1, full length human CD40 (uniprot #P25942-1) on 293T-CD40 cells (human, UniProt P25942 21-277).
T1 construct: whole, on cells
Description: FACS on 293T-CD40 cells, detection with goat anti-human IgG (Fab)-PE, MFI. As for the experimental part:
Following an incubation of 40 minutes at 4° C. in dark, cells were washed three times and resuspended in FACS buffer. Fluorescence was measured using a Becton Dickinson FACS Canto II-HTS equipment and plotted against the recombinant fusion protein or controls concentration. Data was analyzed using Graphpad Prism and EC₅₀ values were reported.

Experiment [2] concerns the target T2, recombinant human CD40-his protein (Cat #: CD0-H5228, Acro biosystems) (human, UniProt P25942 21-193).
T2 construct: Bought protein
Description: SPR (Biacore T200), sample on Protein A chip, antigen-his analyte, 1:1 fit. From the text:
(§1) The purified recombinant fusion proteins were characterized for their binding affinity and binding kinetics by Biacore T200 system (GE healthcare, Pittsburgh, PA, USA). The anti-CD40 antibody HuCD40-C1H1-V2 (having the heavy chain and the light chain of SEQ ID NOs: 19 and 20), Selicrelumab (an agonistic anti-CD40 antibody, Roche Inc., prepared in-house with heavy and light chains of SEQ ID NOs: 27 and 28), and SIRPα-Fc fusion proteins, including SIRPαV2D1M1-Fc (IgG2) (SEQ ID NO: 21, X1=I, X2=R, X3=T, X4=K, X5=F), SIRPαV2D1M2-Fc (IgG2) (SEQ ID NO: 21, X1=I, X2=R, X3=T, X4=R, X5=V), SIRPα-isoform2-Fc (SEQ ID NO: 25) were used as positive controls.
(§2) A Protein A chip (Cat #: 29-1275-56, GE healthcare) was used for affinity determination. The recombinant fusion proteins of the disclosure and the positive controls each at the concentration of 2 μg/ml were respectively flowed onto the chip at a flow rate of 10 μl/min. Then, serially diluted recombinant human CD40-his proteins (Cat #: CD0-H5228, Acro biosystems), human CD47-his proteins (Cat #: CD7-H5227, Acro biosystems), cynomolgus CD40-his proteins (Biosion in house made, SEQ ID NO: 29) or cynomolgus CD47-his proteins (Cat #: CD7-C52H1, Acro biosystems), 2-fold dilution in HBS-EP⁺ buffer (provided by Biacore) with a starting concentration of 200 nM, were flowed onto the chip at a flow rate of 30 μl/min. The association kinetics was followed for 2 minutes and the dissociation kinetics was followed for 10 minutes. The association and dissociation curves were fit to a 1:1 Langmuir binding model using the Biacore evaluation software.
(In SPR one partner is held on a chip, and binding of the other changes the refractive index at the surface.)

The target in experiment [3] is T3, human CD47-his protein (Cat #: CD7-H5227, Acro biosystems) (human, UniProt Q08722 19-139).
T3 construct: Bought protein
The experiment is described as above.
Excerpt: as §1, §2

In experiment [4] the target is human CD40-Fc protein (prepared in-house) (human). In words: competitive ELISA: human CD40-Fc coated, blocked ligand biotin-labeled human CD40L-his, OD(450-630). The protocol: The ability of the recombinant fusion proteins of the disclosure to block CD40-CD40L binding was measured in a competitive ELISA assay. Briefly, 100 μl/well human CD40-Fc proteins (prepared in-house with amino acid sequence of SEQ ID NO: 22) were coated on 96-well micro plates at 2 μg/mL in coating buffer (carbonate/bicarbonate buffer) and incubated overnight at 4° C. The next day, the plates were washed once with wash buffer (PBS+0.05% v/v Tween-20, PBST), and then blocked with 5% w/v non-fatty milk in PBST for 2 hours at 37° C. The plates were then washed 4 times using the wash buffer.
Serially diluted recombinant fusion proteins of the disclosure or controls (starting at 10 µg/mL with a 5-fold serial dilution) in PBST with 2.5% w/v non-fatty milk were added to the CD40-Fc bound plates, 100 μl per well, and incubated at 37° C. for 40 minutes. The plates were washed 4 times using wash buffer, and then added and incubated for 40 minutes at 37° C. with 100 μl/well 95 ng/mL biotin-labeled human CD40L-his protein (Cat #: 10239-H08E, Sino biological). The plates were washed again using wash buffer, added with 100 μl/well streptavidin conjugated HRP (1:10000 dilution in PBST buffer, Cat #: 016-030-084, Jackson ImmunoResearch) and incubated for 40 minutes at 37° C. The plates were washed again using wash buffer. […] The absorbance was read on a microplate reader using the dual wavelength mode with 450 nm for TMB and 630 nm as the reference wavelength, then the OD (450-630) values were plotted against the recombinant fusion protein or controls concentration. Data was analyzed using Graphpad Prism and IC₅₀ values were reported.
(ELISA stands for enzyme-linked immunosorbent assay.)

Experiment [5] deals with human CD40-Fc protein (Cat #: CD0-H5253, ACRO Biosystems) (human, UniProt P25942 21-193). Description: dual-binding ELISA: human CD40-Fc coated, binder titrated, detected with human CD47-his and anti-His-HRP, OD450. The protocol: (§3) The binding activity of the recombinant fusion proteins to human CD40 and CD47 was also tested by dual-binding ELISA assay. Briefly, 100 μl/well human CD40-Fc proteins (Cat #: CD0-H5253, ACRO Biosystems) were coated on 96-well plates at 0.2 μg/mL in PBS and incubated overnight at 2-8° C. The next day, the plates were washed 3 times using wash buffer (PBS+0.05% v/v Tween-20, PBST), and then blocked with block buffer (PBS+1% w/v BSA) for 3 hours at 37° C. The plates were then washed 3 times using the wash buffer.
(§4) Serially diluted recombinant fusion proteins of the disclosure or controls (starting at 100 nM with a 6-fold serial dilution) in block buffer were added to the CD40-Fc bound plates, 100 μL per well, and incubated at 37° C. for 1 hour. The plates were washed 3 times using wash buffer, and then added and incubated for 1 hour at 37° C. with 100 μl/well 3 μg/mL human CD47-his protein (Cat #: CD7-H5227, ACRO Biosystems). The plates were washed again using wash buffer, added with 100 μl/well Anti-His tag Antibody (HRP) (1:2000 dilution in block buffer, Cat #: 105327-MM02T-H, Sino Biological) and incubated for 1 hour at 37° C. The plates were washed again using wash buffer. […] The absorbance was read using a microplate reader set to 450 nm, then the OD (450) values were plotted against the recombinant fusion protein or controls concentration. Data was analyzed using Graphpad Prism and EC₅₀ values were reported.

The target of experiment [6] is T4, biotin-labeled human CD47-Fc (Biosion in house made) (human, biotin-labeled (sites not given)).
T4 construct: also called Human CD47-Fc protein
In words: competitive ELISA: binder premixed with biotin-labeled human CD47-Fc, blocked partner coated human CD172a-Fc, OD(450-630). The protocol: The ability of the recombinant fusion proteins of the disclosure to block CD47-CD172a binding was measured in a competitive ELISA assay. Briefly, 100 μl/well human CD172a-Fc proteins (prepared in-house with amino acid sequence of SEQ ID NO: 24) were coated on 96-well micro plates at 2 μg/mL in coating buffer (carbonate/bicarbonate buffer) and incubated overnight at 4° C. The next day, the plates were washed once with wash buffer (PBS+0.05% v/v Tween-20, PBST), and then blocked with 5% w/v non-fatty milk in PBST for 2 hours at 37° C. The plates were then washed 4 times using wash buffer.
Serially diluted recombinant fusion proteins of the disclosure or controls (starting at 100 nM with a 5-fold serial dilution) were mixed with 20 ng/ml biotin-labeled human CD47-Fc (Biosion in house made, SEQ ID NO: 23) in PBST with 2.5% w/v non-fatty milk. The mixtures were incubated at 37° C. for 40 minutes, and respectively added to the CD172a-Fc bound plates, 100 μl per well. The plates were incubated at 37° C. for 40 minutes, washed 4 times using wash buffer, added with 100 μl/well streptavidin conjugated HRP (1:10000 dilution in PBST buffer, Cat #: 016-030-084, Jackson ImmunoResearch), incubated for 40 minutes at 37° C., and washed again using wash buffer. […] The plates were read on a microplate reader using the dual wavelength mode with 450 nm for TMB and 630 nm as the reference wavelength, and the OD (450-630) values were plotted against the recombinant fusion protein or controls concentration. Data was analyzed using Graphpad Prism and IC₅₀ values were reported. Wild-type SIRPαV2D1-Fc (IgG2) (SEQ ID NO: 21, X1=V, X2=K, X3=S, X4=K, X5=F) was used as a positive control.

The target in experiment [7] is T3, human CD47-his protein (Cat #: …). In words: dual-binding ELISA: human CD40-Fc coated, binder titrated, detected with human CD47-his and anti-His-HRP, OD450. As for the experimental part:
as §3, §4

B1: BSI038×S-002 (bispecific antibody, human IgG2, kappa)
heavy: not shown
light: EIVLTQSPATLSLSPGERATLSCRASQTINNNLHWYQQKPGQAPRLLIKYASQSISGIPARFSGSGSGTDFTLTISSLEPEDFAVYFCQQFSSWPLTFGGGTKVEIKRTVAAPSVFIFPPSDEQLKSGTASVVCLLNNFYPREAKVQWKVDNALQSGNSQESVTEQDSKDSTYSLSSTLTLSKADYEKHKVYACEVTHQGLSSPVTKSFNRGEC
notes: Wild-type SIRPαV2D1 linked to N-terminus of each heavy chain of HuCD40-C1H1-V2 (human IgG2)
For orientation: EC50 means the concentration giving half of the maximal effect. Read a low EC50 as a more potent agent. For orientation: Kd means the free concentration of one partner at which half of the binding sites on the other are occupied at equilibrium, for simple one-to-one binding. In general, koff refers to a measure of how fast the partners let go of each other. One may read the kon as the second-order rate constant of association. What is called IC50 is the point on the concentration scale where inhibition reaches its midpoint. Take B1: the EC50 in experiment [1] was determined as 1.19 nM; in experiment [5] it was 0.689 nM. The dissociation constant Kd is 0.729 nM in experiment [2] and 6.31 nM in experiment [3]. The koff in experiment [2] came out at 0.00184 s⁻¹; in experiment [3] it was 0.00686 s⁻¹. Besides, the values for the association rate constant (kon) in experiment [2] and in experiment [3] were 2.53e+06 M⁻¹ s⁻¹ and 1.09e+06 M⁻¹ s⁻¹, respectively. Further, the half-inhibitory concentration (IC50) in experiment [4] was ~2.37 nM; in experiment [6], 76.8 nM.

B2: HuCD40-C1H1-V2 (antibody, human IgG2, kappa, V domains shown)
VH: EVQLVESGGGLVKPGGSLRLSCAASGFTFSNYGISWVRQAPGKGLEWVSSISSGGDNTYYPDNVKGRFTISRDNAKNSLYLQMNSLRAEDTAVYYCARAGEKAMDYWGQGTLVTVSS
VL: EIVLTQSPATLSLSPGERATLSCRASQTINNNLHWYQQKPGQAPRLLIKYASQSISGIPARFSGSGSGTDFTLTISSLEPEDFAVYFCQQFSSWPLTFGGGTKVEIKR
notes: Humanized anti-CD40 IgG with human IgG2 heavy chain constant region; also called anti-CD40 antibody HuCD40-C1H1-V2
The molecule B2 showed an EC50 in experiment [1] of 1.06 nM. In experiment [2], the dissociation constant (Kd) worked out at 1.05 nM, the dissociation rate constant (koff) came out at 0.00169 s⁻¹ and the kon is 1.62e+06 M⁻¹ s⁻¹. Also, in experiment [4], the 50% inhibitory concentration (IC50) was found to be 1.01 nM. Further, in experiment [7], the binding result was “no binding (tested: 100 nM)”.
